Substitutions are numbered along the chain they refer to. Read-outs that look alike come from different tables or passages of the source.
T1: Human CCR8-ECD-Fc (human)
T1 construct: also called HuCCR8-ECD-Fc; huCC8-ECD-Fc
T1 chain: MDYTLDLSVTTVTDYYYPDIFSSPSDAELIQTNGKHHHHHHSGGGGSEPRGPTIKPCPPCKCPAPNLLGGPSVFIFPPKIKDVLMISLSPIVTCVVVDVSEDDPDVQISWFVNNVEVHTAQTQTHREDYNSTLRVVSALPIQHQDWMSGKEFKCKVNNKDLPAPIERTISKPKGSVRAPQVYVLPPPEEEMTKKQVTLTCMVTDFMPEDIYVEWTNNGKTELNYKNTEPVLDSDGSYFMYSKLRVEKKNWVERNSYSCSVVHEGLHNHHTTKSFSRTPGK

T2: mouse CCR8 expressed on 293T cells (mouse, UniProt P56484 1-353)
T2 construct: whole, on cells
T2 sequence (looked up): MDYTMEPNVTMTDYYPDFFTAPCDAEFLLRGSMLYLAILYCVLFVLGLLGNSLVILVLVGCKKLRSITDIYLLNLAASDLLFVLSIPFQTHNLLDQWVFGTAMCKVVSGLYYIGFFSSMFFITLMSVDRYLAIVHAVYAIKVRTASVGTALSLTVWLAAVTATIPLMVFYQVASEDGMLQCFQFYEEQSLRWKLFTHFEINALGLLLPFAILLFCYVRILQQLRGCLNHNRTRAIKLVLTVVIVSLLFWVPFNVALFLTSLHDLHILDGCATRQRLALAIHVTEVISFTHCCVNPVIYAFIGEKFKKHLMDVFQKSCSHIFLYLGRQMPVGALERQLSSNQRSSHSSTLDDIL

T3: Cynomolgus CCR8-ECD-Fc (cynomolgus monkey)
T3 construct: also called CyCCR8-ECD-Fc; Cynomolgus CCR8-Fc
T3 chain: T1 chain with L7P, V9M, V12M, I20S, F21L, A27G, T32R, G34D

B1: anti-CCR8-1 (antibody, human IgG1, V domains shown)
VH: QVQLVQSGAEVKKPGASVKVSCKASGYTFTSYYMHWVRQAPGQGLEWMGIINPSGGSTSYAQKFQGRVTMTRDTSTSTVYMELSSLRSEDTAVYYCARAVRNRFRFDYWGQGTLVTVSS
VL: QSALTQPASVSGSPGQSITISCTGTSSDVGSYNLVSWYQQHPGKAPKLMIYEVSKRPSGVSNRFSGSKSGNTASLTISGLQAEDEADYYCSSYAGSSTFVVFGGGTKLTVL
B2: anti-CCR8-1-2 (antibody, V domains shown)
VH: QVQLVQSGAEVKKPGASVKVSCKASGYTFTSYYMHWVRQAPGQGLEWMGIINPSGGSTSYAQKFQGRVTMTRDTSTSTVYMELSSLRSEDTAVYYCARGVGNGFRFDYWGQGTLVT
VL: QSALTQPASVSGSPGQSITISCTGTSGDVGSYSLVSWYQHHPSRAPKLIIYEVNKRPSGVSDRFSGSKSGNTASLTITGLQAEDEAHYFCSSYTGNINLPVVFGGGTKLTVL
notes: Parental-1 heavy chain with a shuffled lambda light chain; Human IgG expressed in CHO cells
B3: anti-CCR8-1-1 (antibody, V domains shown)
VH: B2 VH
VL: B1 VL with A8P, S31T, K44N, S54T, S74T, Y89H, S97I, F99H
notes: Parental-1 heavy chain with a shuffled lambda light chain; Expressed from a mammalian expression vector in CHO cells as human IgG

How the values were obtained:
[1] = target: T4, human CCR8 (C-C chemokine receptor type 8) expressed on cells (human, UniProt P51685 1-355); assay: flow cytometry competition on Raji-CCR8 cells; competitor: fluorescently-conjugated BIOLEGEND anti-human CCR8 antibody at a single concentration
T4 construct: also called HuCCR8
Experimental: To characterize the binding cite of the CCR8 antibodies, CCR8 antibodies were incubated with Raji-CCR8 cells in a dose-dependent manner in 96-well plates at 4° C. for 30 min. Unbound CCR8 antibodies were washed away and the cells were incubated with a fluorescently-conjugated human monoclonal anti-CCR8 antibody (commercially available) at a single concentration for 30 min at 37° C. Upon completion of the experiment, the binding of the commercially available monoclonal CCR8 antibody was assessed by Flow Cytometry.

[2] = target: T5, amyloid precursor-like protein 2 (APLP2) (UniProt Q06481 32-763, limits assumed); assay: on-cell Kd, antibody titration on cells expressing APLP2, flow cytometry
T5 construct: whole, on cells

[3] = target: T6, cynomolgus monkey CCR8 expressed on cells (cynomolgus monkey, UniProt G7NYJ2 1-355); assay: on-cell affinity, flow cytometry on 293T cells expressing cyno CCR8
T6 construct: whole, on cells; also called cyno CCR8; CyCCR8

Human CCR8-ECD-Fc [4] = target: T1, Human CCR8-ECD-Fc; assay: binding to HuCCR8-ECD-Fc protein, OD450-570nm
[5] = target: T4, human CCR8 (C-C chemokine receptor type …); assay: on-cell affinity, flow cytometry on 293T cells expressing human CCR8
[6] = target: T4, human CCR8 (C-C chemokine receptor type …); assay: flow cytometry, HuCCR8-293T cells, fold geomean over secondary alone
[7] = target: T2, mouse CCR8 expressed on 293T cells; assay: flow cytometry, MoCCR8-293T cells, fold geomean over secondary alone
Human CCR8-ECD-Fc [8] = target: T1, Human CCR8-ECD-Fc; assay: binding to HuCCR8-ECD-moFc protein (so in the source), OD45-570nm (so in the source)
[9] = target: T2, mouse CCR8 expressed on 293T cells; assay: flow cytometry, mouseCCR8-293T cells, fold geomean over secondary alone
Cynomolgus CCR8-ECD-Fc [10] = target: T3, Cynomolgus CCR8-ECD-Fc; assay: binding to CyCCR8-ECD-huFc protein (so in the source), OD45-570nm (so in the source)
Cynomolgus CCR8-ECD-Fc [11] = target: T3, Cynomolgus CCR8-ECD-Fc; assay: as above
Human CCR8-ECD-Fc [12] = target: T1, Human CCR8-ECD-Fc; assay: binding to HuCCR8-ECD-moFc protein (so in the source), OD45-570nm (so in the source)
[13] = target: T2, mouse CCR8 expressed on 293T cells; assay: flow cytometry, mouseCCR8-293T cells, fold geomean over secondary alone; remark: listed apart in the source

T4 sequence (P51685 whole entry): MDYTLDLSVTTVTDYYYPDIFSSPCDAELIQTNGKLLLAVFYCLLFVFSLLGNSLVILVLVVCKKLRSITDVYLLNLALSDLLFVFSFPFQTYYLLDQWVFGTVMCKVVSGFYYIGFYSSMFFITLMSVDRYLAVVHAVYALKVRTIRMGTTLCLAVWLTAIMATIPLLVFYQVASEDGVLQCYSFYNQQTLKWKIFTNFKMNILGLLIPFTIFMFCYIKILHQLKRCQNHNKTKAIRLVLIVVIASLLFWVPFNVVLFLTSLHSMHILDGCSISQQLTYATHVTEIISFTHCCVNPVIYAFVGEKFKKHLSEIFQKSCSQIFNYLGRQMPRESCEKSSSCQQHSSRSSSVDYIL
T6 sequence (G7NYJ2 entry or part of it): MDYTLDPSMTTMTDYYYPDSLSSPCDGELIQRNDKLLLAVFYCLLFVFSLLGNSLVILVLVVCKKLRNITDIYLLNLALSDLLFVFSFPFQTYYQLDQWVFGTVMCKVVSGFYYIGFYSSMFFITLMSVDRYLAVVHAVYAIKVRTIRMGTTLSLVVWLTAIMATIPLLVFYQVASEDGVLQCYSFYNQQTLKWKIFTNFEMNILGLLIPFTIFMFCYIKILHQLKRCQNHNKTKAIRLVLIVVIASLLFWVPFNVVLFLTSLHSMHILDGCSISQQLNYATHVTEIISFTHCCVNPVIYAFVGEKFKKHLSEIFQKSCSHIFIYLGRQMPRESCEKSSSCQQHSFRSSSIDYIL
T5 sequence (Q06481 32-763 limits assumed): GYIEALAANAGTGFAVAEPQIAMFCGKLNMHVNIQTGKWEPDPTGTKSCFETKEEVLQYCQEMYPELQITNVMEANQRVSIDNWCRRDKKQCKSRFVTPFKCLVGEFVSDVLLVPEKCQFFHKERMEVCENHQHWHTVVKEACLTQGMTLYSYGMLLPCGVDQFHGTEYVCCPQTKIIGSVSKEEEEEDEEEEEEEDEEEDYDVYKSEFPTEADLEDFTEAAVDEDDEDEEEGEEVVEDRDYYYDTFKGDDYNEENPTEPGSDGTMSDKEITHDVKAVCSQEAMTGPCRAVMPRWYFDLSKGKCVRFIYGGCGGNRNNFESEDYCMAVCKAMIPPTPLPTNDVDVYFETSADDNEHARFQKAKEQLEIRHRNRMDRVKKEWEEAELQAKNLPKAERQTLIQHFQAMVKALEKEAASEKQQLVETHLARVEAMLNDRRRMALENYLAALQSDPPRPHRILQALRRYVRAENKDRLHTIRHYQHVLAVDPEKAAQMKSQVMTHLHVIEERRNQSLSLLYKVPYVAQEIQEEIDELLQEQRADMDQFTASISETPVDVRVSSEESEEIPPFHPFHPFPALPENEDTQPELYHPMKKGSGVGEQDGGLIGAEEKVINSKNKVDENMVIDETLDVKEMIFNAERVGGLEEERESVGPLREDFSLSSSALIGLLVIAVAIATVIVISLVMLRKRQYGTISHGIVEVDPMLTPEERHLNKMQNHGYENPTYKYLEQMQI

Row | Binder | IC50 (read off the curve) [1] [mg/L] | binding result [2] | Kd [3] [nM] | binding result (Human CCR8-ECD-Fc [4]) | Kd [5] [nM] | EC50 (read off the curve) [6] [mg/L] | binding result [7] | binding result (Human CCR8-ECD-Fc [8]) | binding result [9] | binding result (Cynomolgus CCR8-ECD-Fc [10]) | binding result (Cynomolgus CCR8-ECD-Fc [11]) | binding result (Human CCR8-ECD-Fc [12]) | binding result [13]
1 | B1 | ~0.02 | no binding (tested: 100 nM (top of the affinity axis)) | > 50 | binds | 0.41 | ~1 | no binding (tested: 10 ug/ml) | – | – | – | – | – | –
2 | B2 | – | – | – | – | 1.06 | – | – | binds | no binding (tested: 10 ug/ml) | binds | – | – | –
3 | B3 | – | – | 22.1 | – | 1.01 | – | – | – | – | – | binds | binds | no binding (tested: 10 ug/ml)

Source: patent US20210238292A1 (VACCINEX, published 2021)
